Reference: patent publication US20220119506A1 (NOVOBIND LIVESTOCK THERAPEUTICS, published 2022)

T1: PirA (Vibrio parahaemolyticus)
T1 construct: also called JHE-like toxin PirA-like; vp19
T1 chain: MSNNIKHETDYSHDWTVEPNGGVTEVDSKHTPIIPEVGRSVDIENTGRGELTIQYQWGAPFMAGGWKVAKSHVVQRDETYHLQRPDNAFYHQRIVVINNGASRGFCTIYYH

T2: PirB (Vibrio parahaemolyticus)
T2 construct: also called JHE-like toxin PirB-like
T2 chain: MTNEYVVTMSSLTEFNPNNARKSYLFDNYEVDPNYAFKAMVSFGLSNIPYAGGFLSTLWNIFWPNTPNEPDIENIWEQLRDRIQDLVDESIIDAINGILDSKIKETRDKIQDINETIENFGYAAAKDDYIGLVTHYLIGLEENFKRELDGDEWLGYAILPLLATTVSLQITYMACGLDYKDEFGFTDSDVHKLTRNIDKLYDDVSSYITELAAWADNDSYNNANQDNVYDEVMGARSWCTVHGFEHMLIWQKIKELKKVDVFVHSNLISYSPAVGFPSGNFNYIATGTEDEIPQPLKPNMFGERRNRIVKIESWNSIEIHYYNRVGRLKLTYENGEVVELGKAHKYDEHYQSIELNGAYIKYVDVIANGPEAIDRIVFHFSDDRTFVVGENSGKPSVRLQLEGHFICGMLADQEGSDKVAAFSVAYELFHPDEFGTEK

B1: NBX0401 (VHH)
VHH: QVQLQQSGGGLVRAGGSLRLSCETSGRTFSSYTMGWFRQAPGKEREFVGTIDWWSSSSSYADSVKGRFTISRDNAKNTVYLQMNSLKPEDTAVYYCAASGKYGLAYSRRDYAYWGQGTQVTVSS
notes: on phage in the phage ELISA
B2: NBX0607 (VHH)
VHH: QVQLQESGGGLVQAGGSLRLSCAASGGTFSRLTMGWFRQAPGEEREFVAAVSWVAETTDYADSVKGRFSISRDNSKNTVYLQMNSLKPVDTAVYYCAAGPRDMIRSRNIRSYDSWGQGTQVTVSS
notes: on phage in the phage ELISA
B3: NBX0619 (VHH)
VHH: QVQLQQSGGGLVQAGGSLRLFCAASGGTFSRLTMGWFRQAPGEEREFVAAVSWVAETTDYADSVKGRFSISRDNSKNTVYLQMNNLKPVDTAVYYCAAGPRDMIRSRNIRSYDSWGQGTQVTVSS
notes: on phage in the phage ELISA
B4: NBX0632 (VHH)
VHH: QVQLQQSGGGLVQAGGSLRLSCAASGGTFSRLTMGWFRQAPGEEREFVAAVSWVAGTTDYADSVKGRFTISRDNSKNTVHLQMNSLKPVDTAVYYCAAGPRDMIRSRNIRSYDSWGQGTQVTVSS
notes: on phage in the phage ELISA
B5: NBX0629 (VHH)
VHH: QVQLQQSGGGLVQAGGSLRLSCAASGGTFSRLTIGWFRQAPGEERVFVAAVSWVAETTDYADSVKGRFSISRDNSKNTVYLQMNSLKPVDTAVYYCAAGPRDMIRSRNIRSYDSWGQGTQVTVSS
notes: on phage in the phage ELISA
B6: NBX0849 (VHH)
VHH: QVQLQESGGGLVQAGGSLRLSCAASGRTFNRYAMGWFRQAPGKEREFVAAISWSGNTQYTDSVKGRFTISRDDAKNTVYLQMNSLKPEDTAVYYCALRIPASSSTTYYYADQYDYWGQGTQVTVSS
notes: on phage in the phage ELISA
B7: NBX0621 (VHH)
VHH: QVQLQESGGGLVQAGGSLRLSCAASGRTFSTYSMGWFRQVPGKEREFVAAIRWSGGSRTYADSVKGRFTISRDNTKNVVYLQMTSLKPEDTAVYYCAADRDGYSSYAHQYDYWGQGTQVTVSS
notes: on phage in the phage ELISA
B8: NBX0628 (VHH)
VHH: QVQLQQSGGGLVQVGGSLRLSCAASGRTFSSYAMGWFRQVPGKEREFVAAIKWSGGSRTYADSVAGRFTISRDNTKNVVYLQMTSLKPEDTAVYYCAADRDGYSRYAHQYDYWGQGTQVTVSS
notes: on phage in the phage ELISA
B9: NBX0616 (VHH)
VHH: QVQLQESGGGLVQAGGSLRLSCATSGLTFSSYAMGWFRQAPGKEREFVATISWSGKSTRYSDSVKGRFTISRDNAKNTVYLQMNSLKPEDTAVYYCAADYQRLGLLRVGVAEYDYWGQGIQVTVSS
notes: on phage in the phage ELISA
B10: NBX0635 (VHH)
VHH: QVQLQESGGGLVQAGGSLRLSCATSGLTFSNYAMGWFRQAAGKEREFVATISWSGKSTRYADSVKGRFTISRDNAKNTVDLRMNSLKPEDTAVYYCAAEYQRLGLLRDGVADYSYWGQGTQVTVSS
notes: on phage in the phage ELISA
B11: NBX0402 (VHH)
VHH: QVQLQQSGGSLVQAGGSLRLSCAASGLPFINYAMGWFRQAPGKDREIVAAIDWNGDSTYYAVSVKGRFTISRDNAKNTVTLQMNSLKPEDTAIYYCASHYQPYIRVSATRRFEADYWGQGTQVTVSS
notes: on phage in the phage ELISA
B12: NBX0403 (VHH)
VHH: QVQLQQSGGSLVQAGGSLRLSCAASGLPFINYAMGWFRQAPGKDREIVAAIDWNGDSTYYAVSVKGRFTISRDNAKNTVTLQMNSLKPEDTAIYYCAADYQPYIRVSATRRFEADYWGQGTQVTVSS
notes: on phage in the phage ELISA
B13: NBX0633 (VHH)
VHH: QVQLQESGGGLVQPGGSLRLSCTASGTIFRSKSMAWYRQAPGQGRETVAHISGLGHTNYVESVKGRFTVSRDDAKNAVYLQMSSLKPEDTAVYYCNTFTAAFSWGQGTQVTVSS
notes: on phage in the phage ELISA
B14: NBX0605 (VHH)
VHH: QVQLQESGGGLVQPGGALRLSCAASGSFFSIYAMAWYRQAPGKQRELVAGITSGSETNYADSVKGRFTISRDNAKNTVYLQMNSLKLEDTAVYYCNRWAPLTRLDYWGQGTQVTVSS
notes: on phage in the phage ELISA
B15: NBX0618 (VHH)
VHH: QVQLQESGGGLVQPGGSLRLSCAASGSIFSFNAMGWYRQAPGKQRELVAAITKGGSTSYADSVKGRFTISVDNAKNTVYLQMNSLTPEDTAVYYCNVKTLRSALFPGYEYWGQGTQVTVSS
notes: on phage in the phage ELISA
B16: NBX0841 (VHH)
VHH: QVQLQESGGGLVQAGGSLRLSCAASARTFIYKMGWFRQAPGKERDFVASIMWSVGNNYYYTDSAKGRFTISRDIAKNTMYLQMDSLEPEDTGEYYCAAATTSTQWRYWGQGTQVTVSS
notes: on phage in the phage ELISA
B17: NBX0844 (VHH)
VHH: QVQLQESGGGLAQTGDSLRLSCAASGRMFSGFVMGWYRQNPGKQRELVATITNGGLTHYGDSVKGRFTISRDNAKNTVYLQMNSLKSEDSAVYYCNARRLFTNYWGQGTQVTVSP
notes: on phage in the phage ELISA
B18: NBX0840 (VHH)
VHH: QVQLQQSGGGLVQAGGSLRLSCAASGSIRSSNVMGWYRQTPGKQRELVATMTAGGLTNYADSVKGRFTISRDNAKNTVYLQMNSLKPEDTAVYYCHYRRIFNVYWGQGTQVTVSS
notes: on phage in the phage ELISA
B19: NBX0649 (VHH)
VHH: QVQLQQSGGGLVQPGGSLTLSCAASGSIASGNVLGWYRQAPGKQRELVATITSGGLTHYKDSVKGRFTISRDNAKNMVFLQMNSLKPEDTAVYYCNYRRLATGYWGQGTQVTVSS
notes: on phage in the phage ELISA
B20: NBX0828 (VHH)
VHH: QVQLQESGGGAVQAGGSLRLSCAGPRSIFSGNAMAWYRQVPGKQRETVATVNTGGLTWYGDFVKGRFTISRDDAKNTLLLQMDSLKPEDTAVYYCNAVLVRARGMWGQGTQVTVSS
notes: on phage in the phage ELISA
B21: NBX0645 (VHH)
VHH: QVQLQESGGGLVQAGGSLRLSCAASGSIFSGNVMGWYRQVPGKQRDLVATITGGGITHYADSVKGRFTISRDNAKNTVYLQMNSLKPEDTAVYYCLYRRIMQQYWGQGTQVTVSS
notes: on phage in the phage ELISA
B22: NBX0650 (VHH)
VHH: QVQLQESGGGLVQAGGSLRLSCEASGSIFSGNVLGWYRQVPGKQRDLVATITGGGITRYADSVKGRFTISRDNAKNTVYLQMNALKPEDTAVYYCHYRRIMQQYWGQGTQVTVSS
notes: on phage in the phage ELISA
B23: NBX0647 (VHH)
VHH: QVQLQESGGGSVPPGGSLRLSCAASGSIFSGNVMAWYRQVPGKQRDLVASMTGGGVTRYADSVIARFTISRDNVKNTVYLQMNSLKPEDTAVYYCHYRRIMQQYWGQGTQVTVSS
notes: on phage in the phage ELISA
B24: NBX0646 (VHH)
VHH: QVQLQESGGGLVQAGGSLRLSCAASGSIFSGNVMGWYRQVPGNQRELVATITGGGVTRYADSVKARFTISRDNAKNTVYLQMNSLKPEDTAVYYCHYRRIMQQSWGQGTQVTVSS
notes: on phage in the phage ELISA
B25: NBX0639 (VHH)
VHH: QVQLQESGGGLVQAGGSLRLSCAASGIVFSSIVMAWYRQAPGKQRELVASITNGGLVNSGDSVKGRFTISRDNAKNTVYLQMNSLKPEDTAVYYCNARRIMTSYWGQGTQVTVSS
notes: on phage in the phage ELISA
B26: NBX0641 (VHH)
VHH: QVQLQESGGGLVQAGGSLRLSCAASGSISNSYVMGWYRQAPGKQRELVATITSGGLTNYAQSLKGRFTISRDNAKNTVYLQMTSLEPEDTAVYYCNARVIFTTYWGQGTQVTVST
notes: on phage in the phage ELISA
B27: NBX0836 (VHH)
VHH: QVQLQQSGGGLVQPGGSLRLSCSASGIRLGSYVMGYYRQAPGKQRELVATVTSGGTTNRADSVKGRFTISRDNAKNAVYLQMNSLKPEDTAVYYCNARILFTNYWGQGTQVTVSS
notes: on phage in the phage ELISA
B28: NBX0834 (VHH)
VHH: QVQLQESGGGSVQAGGSLRLSCAASESMFRDHNMGWYRQAPGKQRELVATISRGGLINYGDSVRGRFTISRDNAKNTIYLQMNSLKVEDTAVYYCNARRLLTTVWGQGTQVTVSP
notes: on phage in the phage ELISA
B29: NBX0648 (VHH)
VHH: QVQLQESGGGLVQAGGSLRLSCEASGIIFSSNVMGWYRQAPGKQRELVASRTSGGLTNYADSAKGRFTISRDNAKNTVYLQMNSLKPEDTAVYYCNARRLFTNYWGQGTQVTVSS
notes: on phage in the phage ELISA
B30: NBX0642 (VHH)
VHH: QVQLQQSGGGLVQAGGSLRLSCVASTVTFSRYAMGWFRQAPGKEREVVAGISGSGHRTYYGDFVKGRFTISRDNAKKTVYLQMNNLKPEDTAVYYCAGDLVAKFDSAYRVSYDSWGQGTQVTVSS
notes: on phage in the phage ELISA

Target: T1, PirA
Experiment: phage ELISA, antigen-coated wells

Q: Which “binding above PBS-coated wells” value does the source give for B1 here?
A: ≥ 50%

Q: B2 was tested. Which “binding above PBS-coated wells” value did it give?
A: ≥ 50%

Q: B3 was tested. Which “binding above PBS-coated wells” value did it give?
A: ≥ 50%

Q: B4 was tested. Which “binding above PBS-coated wells” value did it give?
A: ≥ 50%

Q: With B5 as the binder, how does the “binding above PBS-coated wells” value read?
A: ≥ 50%

Q: B6 was tested. Which “binding above PBS-coated wells” value did it give?
A: ≥ 50%

Q: Which “binding above PBS-coated wells” value does the source give for B7 here?
A: ≥ 50%

Q: Which “binding above PBS-coated wells” value does the source give for B8 here?
A: ≥ 50%

Q: How did the “binding above PBS-coated wells” value turn out when B9 was run?
A: ≥ 50%

Q: How did the “binding above PBS-coated wells” value turn out when B10 was run?
A: ≥ 50%

Q: B11 was tested. Which “binding above PBS-coated wells” value did it give?
A: ≥ 50%

Q: For B12, which “binding above PBS-coated wells” value is on record?
A: ≥ 50%

Q: How did the “binding above PBS-coated wells” value turn out when B13 was run?
A: ≥ 50%

Q: How did the “binding above PBS-coated wells” value turn out when B14 was run?
A: ≥ 50%

Q: How did the “binding above PBS-coated wells” value turn out when B15 was run?
A: ≥ 50%

Target: T2, PirB
Experiment: phage ELISA, antigen-coated wells

Q: Which “binding above PBS-coated wells” value does the source give for B16 here?
A: ≥ 50%

Q: B17 was tested. Which “binding above PBS-coated wells” value did it give?
A: ≥ 50%

Q: With B18 as the binder, how does the “binding above PBS-coated wells” value read?
A: ≥ 50%

Q: B19 was tested. Which “binding above PBS-coated wells” value did it give?
A: ≥ 50%

Q: B20 was tested. Which “binding above PBS-coated wells” value did it give?
A: ≥ 50%

Q: Which “binding above PBS-coated wells” value does the source give for B21 here?
A: ≥ 50%

Q: How did the “binding above PBS-coated wells” value turn out when B22 was run?
A: ≥ 50%

Q: For B23, which “binding above PBS-coated wells” value is on record?
A: ≥ 50%

Q: B24 was tested. Which “binding above PBS-coated wells” value did it give?
A: ≥ 50%

Q: How did the “binding above PBS-coated wells” value turn out when B25 was run?
A: ≥ 50%

Q: For B26, which “binding above PBS-coated wells” value is on record?
A: ≥ 50%

Q: For B27, which “binding above PBS-coated wells” value is on record?
A: ≥ 50%

Q: B28 was tested. Which “binding above PBS-coated wells” value did it give?
A: ≥ 50%

Q: B29 was tested. Which “binding above PBS-coated wells” value did it give?
A: ≥ 50%

Q: B30 was tested. Which “binding above PBS-coated wells” value did it give?
A: ≥ 50%
